Assay results reported in patent publication US20200297863A1, “ANTI-EGFR ANTIBODY DRUG CONJUGATES (ADC) AND USES THEREOF” (AbbVie Inc., priority 2017, published 2020).

Experiments:
LoVo = LoVo colorectal adenocarcinoma xenograft model; format: in vivo, mice; conditions: administered at a much higher dose than the PBD conjugates
Description: Numbers in parentheses represent dose in mg/kg. Arrows represent days of dosing.
Both conjugates were administered at 0.5mg/kg on a q7dx6 regimen (where mice were dosed every 7 days for 6 weeks).

CTG-0162 = CTG-0162 patient-derived NSCLC xenograft model; format: in vivo; conditions: dosed ten-fold higher than the PBD ADCs
Description: (§1) Numbers in parentheses represent dose in mg/kg, and arrows represent days of dosing.

CTG-9786 = CTG-9786 patient-derived head and neck cancer xenograft model; format: in vivo; conditions: much higher dose than the PBD ADCs
Description: as §1

B1: AbA-MMAE: AbA conjugated to monomethyl auristatin E via a cleavable valine-citrulline (VC) linker; DAR about 3 (conjugate, chains of the INN, looked up)
VH: EVQLQESGPGLVKPSQTLSLTCTVSGYSISRDFAWNWIRQPPGKGLEWMGYISYNGNTRYQPSLKSRITISRDTSKNQFFLKLNSVTAADTATYYCVTASRGFPYWGQGTLVTVSS
VL: DIQMTQSPSSMSVSVGDRVTITCHSSQDINSNIGWLQQKPGKSFKGLIYHGTNLDDGVPSRFSGSGSGTDYTLTISSLQPEDFATYYCVQYAQFPWTFGGGTKLEIK
modifications: vc-MMAE payload, DAR about 3
tumor response (LoVo): active in this model, with activity similar to that observed with Ab1(S239C)-PBD | inhibition of tumor growth (CTG-0162): less efficacious | inhibition of tumor growth (CTG-9786): effective, but required a much higher dose
